Test results from patent US20140038895A1 (UNIVERSITY OF QUEENSLAND, published 2014).
Where no end group is shown, it is not given here.

T1: human RXFP3 (human, UniProt Q9NSD7 1-469)
T1 construct: whole, on cells; also called GPCR135; RXFP3 receptor
T1 sequence (looked up): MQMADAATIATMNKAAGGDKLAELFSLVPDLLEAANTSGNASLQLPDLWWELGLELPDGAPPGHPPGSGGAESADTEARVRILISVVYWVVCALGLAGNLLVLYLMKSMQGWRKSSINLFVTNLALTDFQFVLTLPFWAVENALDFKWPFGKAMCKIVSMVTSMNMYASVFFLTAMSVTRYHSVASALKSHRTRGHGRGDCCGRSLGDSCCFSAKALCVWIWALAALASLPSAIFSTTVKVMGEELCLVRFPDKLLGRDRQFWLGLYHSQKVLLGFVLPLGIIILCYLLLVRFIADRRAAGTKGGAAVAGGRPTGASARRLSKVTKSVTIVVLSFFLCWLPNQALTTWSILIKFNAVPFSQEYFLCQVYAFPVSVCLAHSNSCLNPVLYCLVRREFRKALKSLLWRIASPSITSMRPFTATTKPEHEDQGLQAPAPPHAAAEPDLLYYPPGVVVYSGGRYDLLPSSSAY

T2: human RXFP1 (human, UniProt Q9HBX9 1-757)
T2 construct: whole, on cells; also called LGR7; RXFP1 receptor
T2 sequence (looked up): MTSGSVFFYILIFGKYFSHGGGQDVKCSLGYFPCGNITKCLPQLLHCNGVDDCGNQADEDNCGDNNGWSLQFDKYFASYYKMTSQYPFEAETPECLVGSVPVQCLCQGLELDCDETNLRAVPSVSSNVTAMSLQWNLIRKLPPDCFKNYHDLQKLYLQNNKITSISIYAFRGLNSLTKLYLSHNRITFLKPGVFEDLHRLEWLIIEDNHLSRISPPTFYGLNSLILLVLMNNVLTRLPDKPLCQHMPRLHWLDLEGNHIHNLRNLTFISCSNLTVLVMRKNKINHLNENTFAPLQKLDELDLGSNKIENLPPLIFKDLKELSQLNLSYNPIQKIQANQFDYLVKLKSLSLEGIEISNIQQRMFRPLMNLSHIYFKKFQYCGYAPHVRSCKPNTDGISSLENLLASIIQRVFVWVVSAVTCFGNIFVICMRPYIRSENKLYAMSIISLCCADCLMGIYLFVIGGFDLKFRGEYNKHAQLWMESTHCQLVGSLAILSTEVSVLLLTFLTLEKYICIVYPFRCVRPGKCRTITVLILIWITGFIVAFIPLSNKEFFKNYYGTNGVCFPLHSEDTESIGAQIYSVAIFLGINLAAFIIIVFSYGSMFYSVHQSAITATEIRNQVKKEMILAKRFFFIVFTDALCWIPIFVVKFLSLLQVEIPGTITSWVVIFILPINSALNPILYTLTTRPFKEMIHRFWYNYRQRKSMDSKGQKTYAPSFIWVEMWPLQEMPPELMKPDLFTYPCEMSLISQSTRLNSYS


Columns and labels:
[1] = target: T1, human RXFP3; assay: competition binding vs Eu-DTPA-R3/I5 on HEK-293T cells expressing human RXFP3 (Table 2 cell: 'No activity')
Description: (§1) Binding assays were carried out as follows. […] The cells were incubated at room temperature for 60 min before the peptide solution was aspirated off and the cells washed with PBS.

[2] = target: T1, human RXFP3; assay: competition binding vs Eu-DTPA-R3/I5 on HEK-293T cells stably expressing human RXFP3, time-resolved fluorescence, n = 3
Description: as §1

[3] = target: T2, human RXFP1; assay: competition binding vs Eu-DTPA-H2 relaxin on HEK-293T cells transfected with RXFP1 (FIG. 7)
Description: as §1

Row | Binder | binding result [1] | pIC50 [2] | binding result [3]
1 | VRLSGREFIRAVIFTSR-NH2 (Synthetic single chain peptide) [H3 B7-22R] | no binding | – | –
2 | YGVRLSGREFIRAVIFTSR-NH2 (Synthetic single chain peptide) [H3 B5-22R] | – | 6.37 | –
3 | AAPYGVRLSGREFIRAVIFTSR-NH2 (Synthetic single chain peptide) [H3 B2-22R] | – | 7.06 | –
4 | RAAPYGVRLSGREFIRAVIFTS-NH2 (Synthetic single chain peptide) [H3 B1-22] | no binding | – | –
5 | GVRLSGREFIRAVIFTSR-NH2 (Synthetic single chain peptide) [H3 B6-22R] | – | 6.33 | –
6 | RAAPYGVRLSGREFIRAVIFTSR-NH2 (Synthetic single chain peptide; also called R3 B1-22R; R3 1-22R) [H3 B1-22R] | – | 7.75 | binds
7 | RAAPYGVRLAGREFIRAVIFTAR-NH2 (Synthetic single chain peptide) [H3 B1-22R C10/22A] | – | 6.83 | –
8 | APYGVRLSGREFIRAVIFTSR-NH2 (Synthetic single chain peptide) [H3 B3-22R] | – | 6.71 | –
9 | PYGVRLSGREFIRAVIFTSR-NH2 (Synthetic single chain peptide) [H3 B4-22R] | – | 6.66 | –
10 | RAAPYGVRLSGREFIRAVIFTSR-OH (Synthetic single chain peptide) [H3 B1-22R Acid] | – | 6.46 | –
11 | RAAPYGVRLSGREFIRAVIFTSGGSRW-OH (Synthetic single chain peptide; also called H3 relaxin B chain; native H3 B chain) [H3 B-chain C10/22S] | – | 5.6 | –
